Test results reported in FireProtDB (doi:10.1021/bi00066a003).

Details: Geobacillus stearothermophilus, pH 7.5, 25 °C, Fluorescence, TEA 50 mM, reversible: yes, whole UniProt chain shown

B1: Phosphoglycerate kinase wild type, P18912 (protein)
chain: MNKKTIRDVDVRGKRVFCRVDFNVPMEQGAITDDTRIRAALPTIRYLIEHGAKVILASHLGRPKGKVVEELRLDAVAKRLGELLERPVAKTNEAVGDEVKAAVDRLNEGDVLLLENVRFYPGEEKNDPELAKAFAELADLYVNDAFGAAHRAHASTEGIAHYLPAVAGFLMEKELEVLGKALSNPDRPFTAIIGGAKVKDKIGVIDNLLEKVDNLIIGGGLAYTFVKALGHDVGKSLLEEDKIELAKSFMEKAKEKGVRFYMPVDVVVADRFANDANTKVVPIDAIPADWSALDIGPKTRELYRDVIRESKLVVWNGPMGVFEMDAFAHGTKAIAEALAEALDTYSVIGGGDSAAAVEKFGLADKMDHISTGGGASLEFMEGKQLPGVVALEDK
- unfolding free energy (GdnHCl): 4.35 kcal/mol
- unfolding free energy (Urea): 4.21 kcal/mol
